Experimental data taken from patent publication US11523990B2, “Non-covalent, self-organzing hydrogel matrix for biotechnological applications” (DENOVOMATRIX GMBH, priority 2012, dated 2022).
Square brackets hold non-standard residues; d marks the D form. Ends that are not written are not given here.

What was measured:
Assay type in all cases: physicochemical
[1] = High-throughput centrifuge analysis of mechanical properties of the hydrogels (surface deformation, metal bead penetration); conditions: for Deformation speed: 50 μl 1×PBS, 45° centrifuge; for Penetration speed: 275 μm metal beads
Experimental: (§1) ATIII is a heparin-binding peptide known from the literature. All peptides are connected to a four-armed, maleimide functionalized 10-kDa-polyethylene glycol (starPEG). The hydrogel formation was tested in a 50 μI mixture, which contains 5 mM 14-kDa-heparin and 5 mM (2.5 mM) peptide-starPEG conjugate in phosphate buffer solution (1×PBS, pH 7.4). The deformation and penetration speed was analyzed through centrifuging the hydrogel in a 45° table centrifuge with 275 μm metal beads added to the surface. The deformation of the surface and the penetration of the metal beads were monitored in dependence on the applied force.
A comparative high-throughput analysis was performed regarding the mechanical properties of the hydrogels. In order to provide a fast high-throughput method for comparing small amounts of hydrogel, a tabletop centrifuge (5424R, Eppendorf, Hamburg, Germany) was used. For this purpose, 50 μl of the hydrogel were formed by mixing the peptide-starPEG-conjugates and 14-kDa-heparin in phosphate buffer (1×PBS, pH 7.4) to a final concentration of 5 mM (once 2.5 mM for KA7-starPEG). The mixture was incubated in 0.2 ml reaction vessels overnight. The deformation of the hydrogel surface was determined in reference to the 45° centrifuge rotor and the penetration of 275 μm metal beads in dependence on the force that has to be produced by the centrifuge. All experiments were repeated three times.
Hereby FIGS. 5A and B show a deformation of the surface of the 50 μl hydrogel in a 0.2 ml reaction tube, more specifically FIG. 5A below the speed required for deforming the surface, and FIG. 5B at the speed required for deforming the surface. FIG. 5C is a schematic representation of the penetration of a small spheres through 50 μl hydrogel in a 0.2 ml reaction tube depending on the force exerted by the 45° centrifuge.
The hydrogels were formed by mixing peptide-starPEG-conjugate and 14-kDa-heparin at 5 mM final concentration in 50 μl phosphate buffer (1×PBS). The analysis was performed by centrifuging the hydrogels in a 45° tabletop centrifuge with 275 μm metal beads on the gel surface. The deformation of the surface and the penetration of the spheres were recorded in dependence on the exerted force.

[2] = Stability of formed hydrogels against different solvents; conditions: 24° C., at least three days
Experimental: In order to test the strength of the interaction between the peptide motif and the 14-kDa-heparin the formed hydrogels were tested with regard to different solvents. […] For this the peptide-starPEG-conjugates were mixed with 14 kDa-heparin in 50 μl in physiological phosphate buffer solution (1×PBS) to a final concentration of respectively 5 mM. Each solvent, i.e., physiological phosphate buffer solution (1×PBS), Milli-0-water, 1 M hydrochloric acid (HCl) 1 M sodium hydroxide solution (NaOH), saturated sodium chloride solution (NaCl), dimethyl sulfoxide (DMSO), ethanol and cell culture medium with 2% fetal bovine serum (FBS) were respectively added as 200 μl supernatant to the hydrogel. The hydrogel was incubated at a room temperature of 24° C. and the supernatants where exchanged every day for at least three days. All experiments were performed three times. Under none of the tested conditions the KA7-hydrogel could be destroyed. […] 2,2,2-trifuourethanlol (TFE) is known to destroy any type of secondary structures.

[3] = Hydrogel formation in different solvents; conditions: 5 mM conjugate + 5 mM 14-kDa-heparin
Experimental: Three respective different cases were tested in the hydrogel-formation stability test. […] The hydrogels were formed by mixing the final concentrations of respectively 5 mM peptide-starPEG-conjugate and 5 mM 14-kDa-heparin in 50 μl physiological phosphate buffer solution (1×PBS), Milli-Q-water or cell culture medium with 2% fetal bovine serum (FBS). The stability of the hydrogels was tested with the same solvent in which it was formed in 200 μl supernatant. The hydrogels were incubated at room temperature (24° C.), the supernatants were changed every day for at least three days in a row and the result after at least 3 days analyzed.

[4] = Hydrogel formation of peptide-starPEG conjugates with 14-kDa-heparin; conditions: peptide coupled to 10-kDa starPEG; 5 mM 14-kDa-heparin + 5 mM (2.5 mM) conjugate, 50 μl 1×PBS pH 7.4
Experimental: Following is the description of the production of the hydrogel networks. Hereby 14-kDa-heparin (25 mM, 2.5 mM) and peptide-starPEG conjugates (6.25 mM, 3.125 mM) were dissolved in physiologic phosphate buffer solution (1×PBS) water or cell culture medium with 2% fetal bovine serum (FBS). These solutions were dissolved in a ratio of 1:4 heparin:peptide-starPEG-conjugate by obtaining […] or 5 mM 14-kDa-heparin and 2.5 mM or 5 mM peptide-starPEG. The ligand/mol ratio was 2:1, 1:1 and 1:5 relative to the mol ratio of 14-kDa-heparin and the peptide-starPEG-conjugate. The mixtures were incubated within a time frame of one hour to overnight at […]. The gelation time spanned from present up to several hours depending on the applied peptide motif.
as §1
In addition to the peptide motif, a tryptophan was labeled with a one letter code W, for UV detection and purification and a cysteine, marked with the one letter code C, bound to the N-terminal end of the peptide with two glycine. By applying the Michael-addition-chemistry, the cysteine was coupled to the maleimide-functionalized 10-kDa-starPEG. […] This is the largest library of peptide-polymer-conjugates, for which each of the oligosaccharide dependent hydrogel formation was analyzed. To analyze the formation of hydrogels, all peptide-starPEG-conjugates were each mixed with 14-kDa-heparin in 50 μI phosphate buffer (1×PBS) to a final concentration of 5 mM. […]

[5] = Rheological gelation measurement (MCR 302, cone-plate); conditions: for Loss Factor at te / Storage modulus G′ at te: 1 mM KA7-RGDSP-starPEG + 1 mM 5DexS or 0.01 mM 500DexS; for Storage moduli G′: 2 mM KA7-RGDSP-starPEG + 2 mM oligosaccharide, after 110 min of gelation
Experimental: The oligosaccharides were purchased as given in Table 9 and weighed out as required prior each experiment. Oligosaccharides and peptide-starPEG conjugates were dissolved in PBS (oligosaccharides at five-fold and peptide-starPEG at 1.25-fold of the final concentration) and mixed thoroughly. The samples were applied directly onto the measuring system. First, 80% of the final sample volume was provided by the peptide-starPEG solution. Second, the oligosaccharide solution was added to complete to 100% of sample volume.
The Modular Compact Rheometer MCR 302 (Anton Paar) was used with temperature control unit (P-PTD200+H-PTD200, Anton Paar) and cone-plate measuring system (CP20-0.3 and INSET I-PP20/SS, Anton Paar) for assessment of the mechanical properties of the hydrogels of different composition. The gelation measurement was performed at 20° C. with 1% oscillatory shear strain and a frequency of 1 Hz every 5 min for 2 hours. The data was analyzed with Excel (Excel 2013, Microsoft).
The following experiments studied the mechanical properties of hydrogels formed of different components. FIG. 14 summarizes the chosen parameters and measurement values. The storage modulus G′ and loss modulus G″ are calculated from the complex modulus G, which is recorded by the oscillating rheometer. The loss factor tan δ is further calculated by G″ divided by G′.

[6] = 5 mM peptide-starPEG + 5 mM 14-kDa-heparin
[7] = supernatant 1xPBS, 5 mM conjugate + 5 mM heparin gel
[8] = supernatant Cell culture medium with 2% FBS
[9] = supernatant Saturated NaCl solution
[10] = 2.5 mM peptide-starPEG + 5 mM 14-kDa-heparin
[11] = Cell culture medium with 2% FBS
[12] = PBS, 50 μl, result after at least 3 days
[13] = te 120 min, sulfate sodium salt
[14] = 1 mM KA7-RGDSP-starPEG(40 kDa) + 1 mM oligosaccharide, te 120 min
[15] = 2 mM KA7-RGDSP-starPEG(10 kDa) + 2 mM oligosaccharide, te 110 min (5DexS), 120 min (Hep)
[16] = 2 mM KA7-starPEG + 2 mM 5DexS or 0.02 mM 500DexS, te 120 min, sulfate sodium salt
[17] = 2 mM KA7-starPEG(10 kDa) + 2 mM oligosaccharide, te 120 min
[18] = 1.5 mM KA7-starPEG(10 kD) + 3 mM cyclodextrin sulfate, te 120 min

Which Deformation speed [1, 6] does the source give for “CWGGKAFAKLAARLYRKA (Human) [ATIII, reference compound]” here?
Its Deformation speed is “gel shrank”.

What does the source list for CWGGKAKAKAKAKAKAKA [KA7]?
Stability of hydrogel against supernatant ([2]; supernatant 1M HCl): Stable; Stability of hydrogel against supernatant ([2]; supernatant 1M NaOH): Stable; Stability of hydrogel against supernatant [2, 7]: Stable; Stability of hydrogel against supernatant [2, 8]: Stable; Stability of hydrogel against supernatant ([2]; supernatant DMSO): Stable; Stability of hydrogel against supernatant ([2]; supernatant Ethanol): Stable; Stability of hydrogel against supernatant [2, 9]: Stable; Stability of hydrogel against supernatant ([2]; supernatant Water): Stable; Deformation speed [1, 10]: 43998 +/- 3139 m/s^2; Penetration speed [1, 10]: 72780 +/- 6926 m/s^2; Deformation speed [1, 6]: >148317 m/s^2; Penetration speed [1, 6]: 138919 +/- 16275 m/s^2; Hydrogel formation in solvent [3, 11]: formed; Hydrogel formation in solvent [3, 12]: formed; Hydrogel formation in solvent ([3]; water (Milli-Q)): formed

With “CWGGKAKAKAKaKAKAKA (CWGGKAKAKAK[dA]KAKAKA) [KA7-1a]” as the substance, how does the “Hydrogel formation with heparin” value [4] read?
The value was “doesn't form a hydrogel with heparin”.

With “CWGGKaKaKaKaKaKaKa (CWGGK[dA]K[dA]K[dA]K[dA]K[dA]K[dA]K[dA]) [KdA7]” as the substance, how does the “Hydrogel formation with heparin” value [4] read?
The value was “neither formation of a hydrogel”.

Which Deformation speed [1, 6] does the source give for CWGGRARARARARA [RA5] here?
The Deformation speed was >687 m/s^2.

And the Penetration speed [1, 6]?
The Penetration speed was >687 m/s^2.

With CWGGRARARARARARARA [RA7] as the substance, how does the “Stability of hydrogel against supernatant” value (“Stability of hydrogel” below) ([2]; supernatant 1M HCl) read?
The value was “Stable; hydrogel was”.

What about the “Stability of hydrogel” value ([2]; supernatant 1M NaOH) of the same substance?
Its value is “Stable”.

What about the “Stability of hydrogel” value [2, 7] of the same substance?
Its value is “Stable; the surface”.

What about the “Stability of hydrogel” value [2, 8] of the same substance?
Its value is “Stable”.

What about the “Stability of hydrogel” value ([2]; supernatant DMSO) of the same substance?
The value was “Stable”.

What about the “Stability of hydrogel” value ([2]; supernatant Ethanol) of the same substance?
Its value is “Stable”.

And the “Stability of hydrogel” value [2, 9]?
The value was “Not stable; hydrogel”.

And the “Stability of hydrogel” value ([2]; supernatant Water)?
The value was “Stable”.

What about the Deformation speed [1, 6] of the same substance?
The Deformation speed was 1069 +/- 579 m/s^2.

What about the Penetration speed [1, 6] of the same substance?
Its Penetration speed is 1952 +/- 491 m/s^2.

What about the “Hydrogel formation in solvent” value [3, 11] of the same substance?
Its value is “formed”.

And the “Hydrogel formation in solvent” value [3, 12]?
Its value is “formed”.

What about the “Hydrogel formation in solvent” value ([3]; water (Milli-Q)) of the same substance?
Its value is “formed”.

With “Dextran sulfate sodium salt [Peptide 5DexS]” as the substance, how does the “Loss Factor at te” value [5, 13] read?
The value was 0.00681.

And the “Storage modulus G′ at te” value [5, 13]?
Its value is 2,295 Pa.

And the “Loss Factor at time point” value [5, 14]?
Its value is 0.0105.

What about the “Storage moduli G′” value [5] of the same substance?
The value was 14.5 kPa.

What about the “Loss Factor at time point” value [5, 15] of the same substance?
Its value is 0.00611.

And the “Storage modulus G′ at time point” value [5, 15]?
The value was 14,486 Pa.

What about the “Loss Factor at time point” value [5, 16] of the same substance?
The value was 0.132.

What about the “Storage modulus G′ at time point” value [5, 16] of the same substance?
The value was 76,977 Pa.

And the “Loss Factor at time point” value [5, 17]?
The value was 0.132.

And the “Storage modulus G′ at time point” value [5, 17]?
Its value is 76,977 Pa.

For “Dextran sulfate sodium salt [Peptide 500DexS]”, which “Loss Factor at te” value [5, 13] is on record?
Its value is 0.0307.

And the “Storage modulus G′ at te” value [5, 13]?
Its value is 1,658 Pa.

What about the “Loss Factor at time point” value [5, 16] of the same substance?
The value was 0.0887.

And the “Storage modulus G′ at time point” value [5, 16]?
Its value is 34,694 Pa.

With Heparin [reference compound] as the substance, how does the “Loss Factor at time point” value [5, 14] read?
The value was 0.0486.

And the “Storage modulus G′ at time point” value [5, 14]?
The value was 811 Pa.

And the “Storage moduli G′” value [5]?
Its value is 12.1 kPa.

What about the “Loss Factor at time point” value [5, 15] of the same substance?
Its value is 0.0193.

What about the “Storage modulus G′ at time point” value [5, 15] of the same substance?
Its value is 12,104 Pa.

What about the “Loss Factor at time point” value [5, 17] of the same substance?
Its value is 0.0131.

And the “Storage modulus G′ at time point” value [5, 17]?
The value was 1,849 Pa.

And the “Factor by which storage modulus G′ is lower than for 5DexS gels” value ([5]; 2 mM KA7-starPEG, after 120 min of gelation)?
The value was 40.

What does the source list for α-cyclodextrin sulfated sodium salt?
Loss Factor at time point [5, 18]: 0.0641; Storage modulus G′ at time point [5, 18]: 30,561 Pa

What does the source list for β-cyclodextrin sulfated sodium salt?
Loss Factor at time point [5, 18]: 0.062; Storage modulus G′ at time point [5, 18]: 33,169 Pa

Which results are given for γ-cyclodextrin sulfated sodium salt?
Loss Factor at time point [5, 18]: 0.0355; Storage modulus G′ at time point [5, 18]: 30,749 Pa
